Assay results taken from IntAct's records for PubMed 12006496.

B1: Phytochrome B (Arabidopsis thaliana (Mouse-ear cress)), P14713 (parent)
chain: MVSGVGGSGGGRGGGRGGEEEPSSSHTPNNRRGGEQAQSSGTKSLRPRSNTESMSKAIQQYTVDARLHAVFEQSGESGKSFDYSQSLKTTTYGSSVPEQQITAYLSRIQRGGYIQPFGCMIAVDESSFRIIGYSENAREMLGIMPQSVPTLEKPEILAMGTDVRSLFTSSSSILLERAFVAREITLLNPVWIHSKNTGKPFYAILHRIDVGVVIDLEPARTEDPALSIAGAVQSQKLAVRAISQLQALPGGDIKLLCDTVVESVRDLTGYDRVMVYKFHEDEHGEVVAESKRDDLEPYIGLHYPATDIPQASRFLFKQNRVRMIVDCNATPVLVVQDDRLTQSMCLVGSTLRAPHGCHSQYMANMGSIASLAMAVIINGNEDDGSNVASGRSSMRLWGLVVCHHTSSRCIPFPLRYACEFLMQAFGLQLNMELQLALQMSEKRVLRTQTLLCDMLLRDSPAGIVTQSPSIMDLVKCDGAAFLYHGKYYPLGVAPSEVQIKDVVEWLLANHADSTGLSTDSLGDAGYPGAAALGDAVCGMAVAYITKRDFLFWFRSHTAKEIKWGGAKHHPEDKDDGQRMHPRSSFQAFLEVVKSRSQPWETAEMDAIHSLQLILRDSFKESEAAMNSKVVDGVVQPCRDMAGEQGIDELGAVAREMVRLIETATVPIFAVDAGGCINGWNAKIAELTGLSVEEAMGKSLVSDLIYKENEATVNKLLSRALRGDEEKNVEVKLKTFSPELQGKAVFVVVNACSSKDYLNNIVGVCFVGQDVTSQKIVMDKFINIQGDYKAIVHSPNPLIPPIFAADENTCCLEWNMAMEKLTGWSRSEVIGKMIVGEVFGSCCMLKGPDALTKFMIVLHNAIGGQDTDKFPFPFFDRNGKFVQALLTANKRVSLEGKVIGAFCFLQIPSPELQQALAVQRRQDTECFTKAKELAYICQVIKNPLSGMRFANSLLEATDLNEDQKQLLETSVSCEKQISRIVGDMDLESIEDGSFVLKREEFFLGSVINAIVSQAMFLLRDRGLQLIRDIPEEIKSIEVFGDQIRIQQLLAEFLLSIIRYAPSQEWVEIHLSQLSKQMADGFAAIRTEFRMACPGEGLPPELVRDMFHSSRWTSPEGLGLSVCRKILKLMNGEVQYIRESERSYFLIILELPVPRKRPLSTASGSGDMMLMMPY
partner: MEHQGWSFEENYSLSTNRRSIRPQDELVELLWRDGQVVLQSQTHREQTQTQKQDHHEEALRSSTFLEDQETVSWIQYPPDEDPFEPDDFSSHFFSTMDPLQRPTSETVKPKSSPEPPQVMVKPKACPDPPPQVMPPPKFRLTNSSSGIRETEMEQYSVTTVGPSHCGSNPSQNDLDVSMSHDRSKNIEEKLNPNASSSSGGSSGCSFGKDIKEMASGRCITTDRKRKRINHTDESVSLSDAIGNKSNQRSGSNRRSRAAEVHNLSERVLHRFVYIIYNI
B2: Phytochrome A (Arabidopsis thaliana (Mouse-ear cress)), P14712 (parent)
chain: MSGSRPTQSSEGSRRSRHSARIIAQTTVDAKLHADFEESGSSFDYSTSVRVTGPVVENQPPRSDKVTTTYLHHIQKGKLIQPFGCLLALDEKTFKVIAYSENASELLTMASHAVPSVGEHPVLGIGTDIRSLFTAPSASALQKALGFGDVSLLNPILVHCRTSAKPFYAIIHRVTGSIIIDFEPVKPYEVPMTAAGALQSYKLAAKAITRLQSLPSGSMERLCDTMVQEVFELTGYDRVMAYKFHEDDHGEVVSEVTKPGLEPYLGLHYPATDIPQAARFLFMKNKVRMIVDCNAKHARVLQDEKLSFDLTLCGSTLRAPHSCHLQYMANMDSIASLVMAVVVNEEDGEGDAPDATTQPQKRKRLWGLVVCHNTTPRFVPFPLRYACEFLAQVFAIHVNKEVELDNQMVEKNILRTQTLLCDMLMRDAPLGIVSQSPNIMDLVKCDGAALLYKDKIWKLGTTPSEFHLQEIASWLCEYHMDSTGLSTDSLHDAGFPRALSLGDSVCGMAAVRISSKDMIFWFRSHTAGEVRWGGAKHDPDDRDDARRMHPRSSFKAFLEVVKTRSLPWKDYEMDAIHSLQLILRNAFKDSETTDVNTKVIYSKLNDLKIDGIQELEAVTSEMVRLIETATVPILAVDSDGLVNGWNTKIAELTGLSVDEAIGKHFLTLVEDSSVEIVKRMLENALEGTEEQNVQFEIKTHLSRADAGPISLVVNACASRDLHENVVGVCFVAHDLTGQKTVMDKFTRIEGDYKAIIQNPNPLIPPIFGTDEFGWCTEWNPAMSKLTGLKREEVIDKMLLGEVFGTQKSCCRLKNQEAFVNLGIVLNNAVTSQDPEKVSFAFFTRGGKYVECLLCVSKKLDREGVVTGVFCFLQLASHELQQALHVQRLAERTAVKRLKALAYIKRQIRNPLSGIMFTRKMIEGTELGPEQRRILQTSALCQKQLSKILDDSDLESIIEGCLDLEMKEFTLNEVLTASTSQVMMKSNGKSVRITNETGEEVMSDTLYGDSIRLQQVLADFMLMAVNFTPSGGQLTVSASLRKDQLGRSVHLANLEIRLTHTGAGIPEFLLNQMFGTEEDVSEEGLSLMVSRKLVKLMNGDVQYLRQAGKSSFIITAELAAANK
partner: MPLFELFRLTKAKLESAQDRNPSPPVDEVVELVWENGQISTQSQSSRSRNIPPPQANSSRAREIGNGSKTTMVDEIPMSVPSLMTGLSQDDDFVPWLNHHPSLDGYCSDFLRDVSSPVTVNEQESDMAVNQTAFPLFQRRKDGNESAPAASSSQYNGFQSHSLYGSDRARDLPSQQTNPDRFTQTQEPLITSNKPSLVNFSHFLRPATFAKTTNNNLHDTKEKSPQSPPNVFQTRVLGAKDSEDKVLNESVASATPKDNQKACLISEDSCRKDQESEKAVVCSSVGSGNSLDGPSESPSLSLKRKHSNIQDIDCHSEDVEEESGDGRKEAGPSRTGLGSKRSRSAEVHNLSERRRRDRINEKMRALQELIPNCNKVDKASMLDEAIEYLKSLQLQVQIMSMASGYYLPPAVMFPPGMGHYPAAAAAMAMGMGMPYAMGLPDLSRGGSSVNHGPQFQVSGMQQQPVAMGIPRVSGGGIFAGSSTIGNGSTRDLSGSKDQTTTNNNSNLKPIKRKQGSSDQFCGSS
B3: Phytochrome B (Arabidopsis thaliana (Mouse-ear cress)), P14713 (parent)
chain: B1 chain
partner: B2 partner
B4: Phytochrome A (Arabidopsis thaliana (Mouse-ear cress)), P14712 (parent)
chain: B2 chain
partner: B1 partner

Variants of: B1
Conditions: with PIF4, Q8W2F3-2

Row | effect of a mutation on the interaction | Variant
1 | decreasing interaction | G767R

Variants of: B2
Conditions: with pif3_arath PIF3, O80536

Row | effect of a mutation on the interaction | Variant
2 | decreasing interaction | A715V
3 | decreasing interaction | G750E

Variants of: B3
Conditions: with pif3_arath PIF3, O80536

Row | effect of a mutation on the interaction | Variant
4 | decreasing interaction | G767R

Variants of: B4
Conditions: with PIF4, Q8W2F3-2

Row | effect of a mutation on the interaction | Variant
5 | decreasing interaction | G787E
6 | decreasing interaction | A715V
